PMC8322138, “BRCA2 binding through a cryptic repeated motif to HSF2BP oligomers does not impact meiotic recombination” (Nature Communications, 2021)

System: BRCA2 (Flag-F9)
Experiment: Co-immunoprecipitation of GFP-HSF2BP variants with Flag-BRCA2 F9
Format: cell-based, human
Conditions: transient HEK293T / stable HeLa, anti-GFP beads, immunoblot
Description: Expression constructs for producing point mutation and truncation variants of HS2BP and BRCA2 in human cells were engineered as described before[16] in the PiggyBac vectors by Gibson assembly. For transient expression into HEK293T cells plasmid DNA was transfected using calcium precipitation method or PEI transfection. For stable integration into HeLa cells, PiggyBac expression vectors were co-lipofected together with PiggyBac transposase plasmid (hyPBase[45]) with Lipofectamine 3000 (Thermo Fisher).
Cells were washed twice in ice-cold PBS and lysed in situ in NETT buffer (100 mM NaCl, 50 mM Tris pH 7.5, 5 mM EDTA pH 8.0, 0.5% Triton-X100) supplemented immediately before use with protease inhibitor cocktail (Roche) and 0.4 mg/ml Pefabloc (Roche) (NETT++); 450 µl NETT++ buffer was used per 145 mm dish ES cells, 1 ml for HeLa and HEK293T. After 5–10 min, cells were scraped off and collected in 1.5 ml microcentrifuge tubes; lysis was continued for additional 20–30 min on ice, then mixtures were centrifuged (15 min, 4 °C, 14,000 × g) and the supernatant (input) was added to washed anti-GFP beads (Chromotek). Beads and lysates were incubated 2–4 h at 4 °C while rotating, washed three times in NETT++ buffer and bound proteins were eluted by boiling in 2x Sample buffer. Immunoblotting was performed following standard procedures with the following antibodies: anti-GFP mAb (Roche, #11814460001), anti-GFP pAb (Abcam #ab290 and Invitrogen #A11122), anti-RAD51[46], anti-BRCA2 mAb Ab1 OP-95 (Millipore #OP95), anti-BRCA2 (Abcam #27976), anti-Flag (M2 antibody, Sigma, F3165 and F1804). For quantitative immunoblotting fluorescently labeled secondary antibodies were used: anti-mouse CF680 (Sigma #SAB460199), anti-rabbit CF770 (Sigma #SAB460215); membranes were scanned using Odyssey CLx imaging system (LI-COR).

Molecule | binding to BRCA2 (co-precipitation) | other results
N243H: GFP-HSF2BP point mutant (protein, left off: GFP, end not stated, kept, GFP-HSF2BP point mutant) MGEAGAAEEACRHMGTKEEFVKVRKKDLERLTTEVMQIRDFLPRILNGEVLESFQKLKIVEKNLERKEQELEQLKMDCEHFKARLETVQADNIREKKEKLALRQQLNEAKQQLLQQAEYCTEMGAAACTLLWGVSSSEEVVKAILGGDKALKFFSITGQTMESFVKSLDGDVQELDSDESQFVFALAGIVTNVAAIACGREFLVNSSRVLLDTILQLLGDLKPGQCTKLKVLMLMSLYNVSIHLKGLKYISESPGFIPLLWWLLSDPDAEVCLHVLRLVQSVVLEPEVFSKSASEFRSSLPLQRILAMSKSRNPRLQTAAQELLEDLRTLEHNV | totally abolished binding | binding to BRCA2 (co-precipitation) (listed as N243): failed to co-precipitate
M235T: GFP-HSF2BP point mutant (protein, left off: GFP, end not stated, kept, GFP-HSF2BP point mutant) MGEAGAAEEACRHMGTKEEFVKVRKKDLERLTTEVMQIRDFLPRILNGEVLESFQKLKIVEKNLERKEQELEQLKMDCEHFKARLETVQADNIREKKEKLALRQQLNEAKQQLLQQAEYCTEMGAAACTLLWGVSSSEEVVKAILGGDKALKFFSITGQTMESFVKSLDGDVQELDSDESQFVFALAGIVTNVAAIACGREFLVNSSRVLLDTILQLLGDLKPGQCTKLKVLMLTSLYNVSINLKGLKYISESPGFIPLLWWLLSDPDAEVCLHVLRLVQSVVLEPEVFSKSASEFRSSLPLQRILAMSKSRNPRLQTAAQELLEDLRTLEHNV | still weakly bound to BRCA2 | –
Y238A: GFP-HSF2BP point mutant (protein, left off: GFP, end not stated, kept, GFP-HSF2BP point mutant) MGEAGAAEEACRHMGTKEEFVKVRKKDLERLTTEVMQIRDFLPRILNGEVLESFQKLKIVEKNLERKEQELEQLKMDCEHFKARLETVQADNIREKKEKLALRQQLNEAKQQLLQQAEYCTEMGAAACTLLWGVSSSEEVVKAILGGDKALKFFSITGQTMESFVKSLDGDVQELDSDESQFVFALAGIVTNVAAIACGREFLVNSSRVLLDTILQLLGDLKPGQCTKLKVLMLMSLANVSINLKGLKYISESPGFIPLLWWLLSDPDAEVCLHVLRLVQSVVLEPEVFSKSASEFRSSLPLQRILAMSKSRNPRLQTAAQELLEDLRTLEHNV | totally abolished binding | binding to BRCA2 (co-precipitation) (listed as Y238): failed to co-precipitate
N192R: GFP-HSF2BP point mutant (protein, left off: GFP, end not stated, kept, GFP-HSF2BP point mutant) MGEAGAAEEACRHMGTKEEFVKVRKKDLERLTTEVMQIRDFLPRILNGEVLESFQKLKIVEKNLERKEQELEQLKMDCEHFKARLETVQADNIREKKEKLALRQQLNEAKQQLLQQAEYCTEMGAAACTLLWGVSSSEEVVKAILGGDKALKFFSITGQTMESFVKSLDGDVQELDSDESQFVFALAGIVTRVAAIACGREFLVNSSRVLLDTILQLLGDLKPGQCTKLKVLMLMSLYNVSINLKGLKYISESPGFIPLLWWLLSDPDAEVCLHVLRLVQSVVLEPEVFSKSASEFRSSLPLQRILAMSKSRNPRLQTAAQELLEDLRTLEHNV | totally abolished binding | binding to BRCA2 (co-precipitation) (listed as N192): failed to co-precipitate
E201A: GFP-HSF2BP point mutant (protein, left off: GFP, end not stated, kept, GFP-HSF2BP point mutant) MGEAGAAEEACRHMGTKEEFVKVRKKDLERLTTEVMQIRDFLPRILNGEVLESFQKLKIVEKNLERKEQELEQLKMDCEHFKARLETVQADNIREKKEKLALRQQLNEAKQQLLQQAEYCTEMGAAACTLLWGVSSSEEVVKAILGGDKALKFFSITGQTMESFVKSLDGDVQELDSDESQFVFALAGIVTNVAAIACGRAFLVNSSRVLLDTILQLLGDLKPGQCTKLKVLMLMSLYNVSINLKGLKYISESPGFIPLLWWLLSDPDAEVCLHVLRLVQSVVLEPEVFSKSASEFRSSLPLQRILAMSKSRNPRLQTAAQELLEDLRTLEHNV | did not impact BRCA2 binding | binding to BRCA2 (co-precipitation) (listed as E201): do not decrease binding
R200E: GFP-HSF2BP point mutant (protein, left off: GFP, end not stated, kept, GFP-HSF2BP point mutant) MGEAGAAEEACRHMGTKEEFVKVRKKDLERLTTEVMQIRDFLPRILNGEVLESFQKLKIVEKNLERKEQELEQLKMDCEHFKARLETVQADNIREKKEKLALRQQLNEAKQQLLQQAEYCTEMGAAACTLLWGVSSSEEVVKAILGGDKALKFFSITGQTMESFVKSLDGDVQELDSDESQFVFALAGIVTNVAAIACGEEFLVNSSRVLLDTILQLLGDLKPGQCTKLKVLMLMSLYNVSINLKGLKYISESPGFIPLLWWLLSDPDAEVCLHVLRLVQSVVLEPEVFSKSASEFRSSLPLQRILAMSKSRNPRLQTAAQELLEDLRTLEHNV | totally abolished binding | –
G199D: GFP-HSF2BP point mutant (protein, left off: GFP, end not stated, kept, GFP-HSF2BP point mutant) MGEAGAAEEACRHMGTKEEFVKVRKKDLERLTTEVMQIRDFLPRILNGEVLESFQKLKIVEKNLERKEQELEQLKMDCEHFKARLETVQADNIREKKEKLALRQQLNEAKQQLLQQAEYCTEMGAAACTLLWGVSSSEEVVKAILGGDKALKFFSITGQTMESFVKSLDGDVQELDSDESQFVFALAGIVTNVAAIACDREFLVNSSRVLLDTILQLLGDLKPGQCTKLKVLMLMSLYNVSINLKGLKYISESPGFIPLLWWLLSDPDAEVCLHVLRLVQSVVLEPEVFSKSASEFRSSLPLQRILAMSKSRNPRLQTAAQELLEDLRTLEHNV | abolished binding | binding to BRCA2 (co-precipitation) (listed as G199): failed to co-precipitate
N239K: GFP-HSF2BP point mutant (protein, left off: GFP, end not stated, kept, GFP-HSF2BP point mutant) MGEAGAAEEACRHMGTKEEFVKVRKKDLERLTTEVMQIRDFLPRILNGEVLESFQKLKIVEKNLERKEQELEQLKMDCEHFKARLETVQADNIREKKEKLALRQQLNEAKQQLLQQAEYCTEMGAAACTLLWGVSSSEEVVKAILGGDKALKFFSITGQTMESFVKSLDGDVQELDSDESQFVFALAGIVTNVAAIACGREFLVNSSRVLLDTILQLLGDLKPGQCTKLKVLMLMSLYKVSINLKGLKYISESPGFIPLLWWLLSDPDAEVCLHVLRLVQSVVLEPEVFSKSASEFRSSLPLQRILAMSKSRNPRLQTAAQELLEDLRTLEHNV | totally abolished binding | binding to BRCA2 (co-precipitation) (listed as N239): failed to co-precipitate
R200H: GFP-HSF2BP point mutant (protein, left off: GFP, end not stated, kept, GFP-HSF2BP point mutant) MGEAGAAEEACRHMGTKEEFVKVRKKDLERLTTEVMQIRDFLPRILNGEVLESFQKLKIVEKNLERKEQELEQLKMDCEHFKARLETVQADNIREKKEKLALRQQLNEAKQQLLQQAEYCTEMGAAACTLLWGVSSSEEVVKAILGGDKALKFFSITGQTMESFVKSLDGDVQELDSDESQFVFALAGIVTNVAAIACGHEFLVNSSRVLLDTILQLLGDLKPGQCTKLKVLMLMSLYNVSINLKGLKYISESPGFIPLLWWLLSDPDAEVCLHVLRLVQSVVLEPEVFSKSASEFRSSLPLQRILAMSKSRNPRLQTAAQELLEDLRTLEHNV | totally abolished binding | –
K245T: GFP-HSF2BP point mutant (protein, left off: GFP, end not stated, kept, GFP-HSF2BP point mutant) MGEAGAAEEACRHMGTKEEFVKVRKKDLERLTTEVMQIRDFLPRILNGEVLESFQKLKIVEKNLERKEQELEQLKMDCEHFKARLETVQADNIREKKEKLALRQQLNEAKQQLLQQAEYCTEMGAAACTLLWGVSSSEEVVKAILGGDKALKFFSITGQTMESFVKSLDGDVQELDSDESQFVFALAGIVTNVAAIACGREFLVNSSRVLLDTILQLLGDLKPGQCTKLKVLMLMSLYNVSINLTGLKYISESPGFIPLLWWLLSDPDAEVCLHVLRLVQSVVLEPEVFSKSASEFRSSLPLQRILAMSKSRNPRLQTAAQELLEDLRTLEHNV | did not impact BRCA2 binding | binding to BRCA2 (co-precipitation) (listed as K245): do not decrease binding
